From paper PMC4503226 (FASEB journal : official publication of the Federation of …, 2011)

Molecular target: the molecule itself
Assay: FRET or BRET

B1: hOCT2 tagged with CFP or YFP at the N terminus (natural protein)
chain: MPTTVDDVLEHGGEFHFFQKQMFFLLALLSATFAPIYVGIVFLGFTPDHRCRSPGVAELSLRCGWSPAEELNYTVPGPGPAGEASPRQCRRYEVDWNQSTFDCVDPLASLDTNRSRLPLGPCRDGWVYETPGSSIVTEFNLVCANSWMLDLFQSSVNVGFFIGSMSIGYIADRFGRKLCLLTTVLINAAAGVLMAISPTYTWMLIFRLIQGLVSKAGWLIGYILITEFVGRRYRRTVGIFYQVAYTVGLLVLAGVAYALPHWRWLQFTVSLPNFFFLLYYWCIPESPRWLISQNKNAEAMRIIKHIAKKNGKSLPASLQRLRLEEETGKKLNPSFLDLVRTPQIRKHTMILMYNWFTSSVLYQGLIMHMGLAGDNIYLDFFYSALVEFPAAFMIILTIDRIGRRYPWAASNMVAGAACLASVFIPGDLQWLKIIISCLGRMGITMAYEIVCLVNAELYPTFIRNLGVHICSSMCDIGGIITPFLVYRLTNIWLELPLMVFGVLGLVAGGLVLLLPETKGKALPETIEEAENMQRPRKNKEKMIYLQVQKLDIPLN
  NFRET: 0.176
